Test: protein stability index of a GFP-peptide fusion (GPS, HEK-293T) (PSI 1-6); higher = more stable
Settings: c terminus: a fixed tail appended
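Note: lentivirally expressed fusions sorted by FACS into six bins by GFP to DsRed ratio, PSI derived from sequencing read proportions per bin multiplied by bin number.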

## EEAEELAKEMSVPFYTSRIDEVLL
parent: IOH42390_7
  protein stability index: 3.76

## LTVYAWERGSMKTHFNTAQGFRTV
parent: IOH41283_40
  protein stability index: 2.27

## TKEKKHQCDHCERCFYTRKDVRRH
parent: IOH42591_26
  protein stability index: 3.45

## GKAYGWCSELIRHRRVHARKEPSH
parent: IOH40635_71
  protein stability index: 2.85

## CKDFLCQFCAQRFGRKDHLTRHTK
parent: IOH42591_31
  protein stability index: 2.02

## IRVMVHGRNHTPFLGHHSFSVRPG
parent: IOH42569_55
  protein stability index: 2.25

## RVAKKLQSGLVWTNCWLIRELNLP
parent: IOH41048_73
  protein stability index: 2.99

## YPPLEGHVRQGVFSSLNHIVEKRV
parent: IOH41890_75
  protein stability index: 2.53

## WCLVQICEKYLPGYYSEKLEAIQL [TBC1D10A WT]
parent: IOH41348_37
  protein stability index: 2.8

## YPCLEKPRIWSLAHTATASAVEGA [IRX6 WT]
parent: IOH43040_58
  protein stability index: 2.44

## YANGGLNYSYRGYGALSSNLQPPA [C20orf112 WT]
parent: IOH40687_56
  protein stability index: 2.06

## INRADYCPECYPDNPANRSLVLPW [IFRG15 WT]
parent: IOH41552_8
  protein stability index: 2.18

## RFLRMLLRLADEFGVAVVITNQVV
parent: IOH41191_42
  protein stability index: 2.39

## RRPSPVLRHLELLDEFARENIDSL
parent: IOH42569_24
  protein stability index: 2.6

## EEITEESLEESVGKPLYLIFRNLC
parent: IOH41890_107
  protein stability index: 2.68

## QKNFELAFTMAENLANCERLIEVE
parent: IOH43320_45
  protein stability index: 1.84

## HSGEKPFICKECGKAYGWCSELIR
parent: IOH40635_69
  protein stability index: 2.02

## KKREFRFHPIKETVVEEPVDITPY
parent: IOH41890_92
  protein stability index: 1.94

## RTHTGEQPYTCSICRRNFSRRSSL [ZNF75A WT]
parent: IOH41486_45
  protein stability index: 2.88

## ASSVESTLPVLEASSWKKQVSHDF
parent: IOH41760_90
  protein stability index: 3

## LQLGEGVEFDVLPAFDALGQLTGG
parent: IOH41283_24
  protein stability index: 1.9

## PTCPVCKDRASPADLRTNHTLNNL
parent: IOH40792_10
  protein stability index: 2.83

## FTGSQPTAERITQLSAPHCKKLSL
parent: IOH41048_39
  protein stability index: 2.08

## AFTMAENLANCERLIEVEDMMVMG
parent: IOH43320_46
  protein stability index: 2.04

## YIGTHEYPHFSHRPSTLQAASTPQ
parent: IOH41283_62
  protein stability index: 1.94

## ETAAGKGKGEARARLKRSQSFGVA
parent: IOH43320_31
  protein stability index: 4.31

## DPNKMAFGCEECGKKYNTMLGYKR
parent: IOH42591_15
  protein stability index: 2.34

## CLLGLGSLVLILSLSYTVLIVGRI
parent: IOH40813_20
  protein stability index: 3.34

## VVAYLALAALSATISFRIYKSVLQ [RTN1 WT]
parent: IOH40898_10
  protein stability index: 3.02

## TPAKSLDKFIEDYLLPDTCFRMQI
parent: IOH41283_2
  protein stability index: 2.79

## YSAYIRRCACAASSDESPGSKCSP [TTC32 WT]
parent: IOH43157_6
  protein stability index: 1.99

## GVSKVGLRKIIDFIYTAKLSLNMD
parent: IOH40892_24
  protein stability index: 2.67

## EDLTAKRKRMKMDKTCSKTKNKSK [FAM9B WT]
parent: IOH41618_11
  protein stability index: 4.96

## DLNSKGKKREFRFHPIKETVVEEP
parent: IOH41890_91
  protein stability index: 2.23

## TGEFLKLPFERLAFVLSSNSLKHC
parent: IOH40892_39
  protein stability index: 2.65

## AQLQALRQKEVDFCISLLRERFME
parent: IOH41890_38
  protein stability index: 2.31

## TRIMIGLTLVFFVQITGQPNILFY
parent: IOH40813_47
  protein stability index: 3.31

## APKKELINIKGISEAKADKILAEA
parent: IOH41191_10
  protein stability index: 4.71

## FSDDEEDLNSKGKKREFRFHPIKE
parent: IOH41890_90
  protein stability index: 2.85

## FLGHHSFSVRPGTEATISIREDEV
parent: IOH42569_57
  protein stability index: 1.72

## WEVQVSPTCPVCKDRASPADLRTN
parent: IOH40792_9
  protein stability index: 2.54

## FTSGFNAAALDYEADGSTNNGIFQ [SPACA3 WT]
parent: IOH42995_21
  protein stability index: 1.89

## LTLVFFVQITGQPNILFYASTVLK
parent: IOH40813_48
  protein stability index: 2.98

## DKELLCCSCQADPRHQGHRVQPVK
parent: IOH40792_20
  protein stability index: 3.56

## EKPPSGTKEKKHQCDHCERCFYTR
parent: IOH42591_25
  protein stability index: 3.58

## FYRLYQDLETHRLPCTSRCPRPCR
parent: IOH42569_73
  protein stability index: 2.21

## PRYREDPCKQCKKKYVKGDVSLCR
parent: IOH41760_105
  protein stability index: 2.57

## LELGSTEVLLDHLKAHAEEKPPSG
parent: IOH42591_22
  protein stability index: 4.44

## DRKLHSRPRKLYKHSSTSSRIAKG [BTBD10 WT]
parent: IOH43395_4
  protein stability index: 3.86

## FHPIKETVVEEPVDITPYLDQLDE
parent: IOH41890_93
  protein stability index: 3.32

## YIKVDWQRVEKDMKKAKEQLKIRK [FUNDC2 WT]
parent: IOH40818_22
  protein stability index: 1.68

## SDDFCTFQMVLEGGVCCTVTLNFN
parent: IOH42390_37
  protein stability index: 3.15

## WSSRSPQERSRVLNQVADLLEQSL
parent: IOH41048_11
  protein stability index: 2.54
